{
  "source": "paper PMC4652169",
  "origin": "cited, not measured here",
  "biological_target": "IgG Fc Fc (Homo sapiens) [IgG part: P01857]",
  "test": "given as Ka",
  "data": [
    {"substance": "Protein A Z domain (ZWT) Z domain (from UniProt P02976)", "values": [
      {"measurement": "Kd", "value": 16.9, "unit": "nM"}
    ]}
  ]
}
